According to patent US20050100965A1:

Target: recombinant IL18 (YK27-1) (Homo sapiens (Human)) (UniProt Q14116)
Assay: cell-based or functional assay

B1: Murine anti-human IL-18 mAb (125-2H) (antibody, from another filing, V domains shown)
VH: EIQLQQSGPELVKPGASVKVSCKASGYSFTDYFIYWVKQSHGKSLEWIGDIDPYNGDTSYNQKFRDKATLTVDQSSTTAFMHLNSLTSEDSAVYFCARGLRFWGQGTLVTVSA
VL: DIQMTQSPSSLSASLGERVSLTCRASQDIGSKLYWLQQEPDGTFKRLIYATSSLDSGVPKRFSGSRSGSDYSLTISSLESEDFVDYYCLQYASSPYTFGGGTKLAIKR
**Q.** How did the IFN (interferon γ) transcript level, quantitative PCR, whole blood stimulated with IL18+IL12, donor1n (Unstimulated 0.002, Stimulated 0.339) turn out when B1 was run?
**A.** 0.07

**Q.** What about the IFN (interferon γ) transcript level, quantitative PCR, whole blood stimulated with IL18+IL12, donor 3n (Unstimulated 0.001, Stimulated 0.187) of the same binder?
**A.** 0.026

**Q.** And the IFN (interferon γ) transcript level, quantitative PCR, whole blood stimulated with IL18+IL12, donor4n (Unstimulated 0.001, Stimulated 0.082)?
**A.** 0.027

**Q.** What about the IFN (interferon γ) transcript level, quantitative PCR, whole blood stimulated with IL18+IL12, donor 5n (Unstimulated 0.003, Stimulated 0.012) of the same binder?
**A.** 0.006

**Q.** And the IFN (interferon γ) transcript level, quantitative PCR, whole blood stimulated with IL18+IL12, donor6n (Unstimulated 0.002, Stimulated 0.076)?
**A.** 0.01

**Q.** And the IFN (interferon γ) transcript level, quantitative PCR, whole blood stimulated with IL18+IL12, donor7n (Unstimulated 0.002, Stimulated 0.049)?
**A.** 0.012

**Q.** And the IFN (interferon γ) transcript level, quantitative PCR, whole blood stimulated with IL18+IL12, donor8n (Unstimulated 0.002, Stimulated 0.049)?
**A.** 0.012

**Q.** What about the IFN (interferon γ) transcript level, quantitative PCR, whole blood stimulated with IL18+IL12, donor 9n (Unstimulated 0.001, Stimulated 1.250) of the same binder?
**A.** 0

**Q.** And the IFN (interferon γ) transcript level, quantitative PCR, whole blood stimulated with IL18+IL12, donor10n (Unstimulated 0.002, Stimulated 0.361)?
**A.** 0.002
